Experiment [1] has as its target T1, human GIP receptor (human, UniProt P48546 22-466).
T1 sequence (looked up): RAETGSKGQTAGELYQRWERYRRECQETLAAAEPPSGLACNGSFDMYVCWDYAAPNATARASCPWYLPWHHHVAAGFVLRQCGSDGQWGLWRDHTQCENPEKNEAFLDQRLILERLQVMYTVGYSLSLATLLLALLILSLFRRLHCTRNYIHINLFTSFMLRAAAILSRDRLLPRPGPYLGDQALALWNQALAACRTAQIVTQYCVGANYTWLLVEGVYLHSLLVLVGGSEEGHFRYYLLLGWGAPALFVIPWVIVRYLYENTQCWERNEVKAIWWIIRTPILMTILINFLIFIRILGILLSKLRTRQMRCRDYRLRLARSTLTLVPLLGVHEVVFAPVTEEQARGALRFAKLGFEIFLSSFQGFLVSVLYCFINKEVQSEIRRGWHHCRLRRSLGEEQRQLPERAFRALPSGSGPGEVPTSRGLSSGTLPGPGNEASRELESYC
Put plainly: cell-based or functional assay.

A further experiment concerns the target T2, human serum albumin (human, UniProt P02768 25-609).
T2 construct: also called HSA; human albumin
The experiment is described as follows: 125I-human GIP competition binding on hGIPR COS-7 cells with and without 2% HSA; fold change of IC50 taken as HSA binding.

Experiment [2] has as its target T1, human GIP receptor. Put plainly: 125I-hGIP(1-42) competition binding, COS-7 cells expressing human GIPR, 2% HSA.
Method: (§1) After incubation, the cells were washed twice in ice-cold binding buffer (+/−2% HSA) and lysed using 200 mM NaOH with 1% SDS for 30 min. Nonspecific binding was determined as the binding of radioactive ligand to untransfected cells.
Experiment [3] concerns the target T1, human GIP receptor. The experiment is described as follows: 125I-hGIP(1-42) competition binding, COS-7 cells expressing human GIPR.
Method: as §1
Experiment [4] concerns the target T1, human GIP receptor. The experiment is described as follows: cell-based or functional assay. This is another data set of the same source.
Experiment [5] deals with T1, human GIP receptor. The experiment is described as follows: 125I-hGIP(1-42) competition binding, COS-7 cells expressing human GIPR, 0.1% casein (no HSA).
Method: as §1

Here are results for eight molecules from patent publication US20200087373A1 (UNIVERSITY OF COPENHAGEN, published 2020).

Numbered stars: 1 amine (or outer) side, 2 acyl side, 3 side chain; on linkers, the order of the positions; unused ones are H or OH. Side chains are listed from the residue outwards. Ends that are not written are not given here. * marks the point of attachment. C16 diacid = O=C(O)CCCCCCCCCCCCCCC(=O)*; γGlu = O=C(O)[C@H](CCC(=O)[*:2])N[*:1]; Palmitoyl = CCCCCCCCCCCCCCCC(=O)*; AEEA = NCCOCCOCC(=O)O; βAla = NCCC(=O)O

T2 sequence (P02768 25-609 limits assumed): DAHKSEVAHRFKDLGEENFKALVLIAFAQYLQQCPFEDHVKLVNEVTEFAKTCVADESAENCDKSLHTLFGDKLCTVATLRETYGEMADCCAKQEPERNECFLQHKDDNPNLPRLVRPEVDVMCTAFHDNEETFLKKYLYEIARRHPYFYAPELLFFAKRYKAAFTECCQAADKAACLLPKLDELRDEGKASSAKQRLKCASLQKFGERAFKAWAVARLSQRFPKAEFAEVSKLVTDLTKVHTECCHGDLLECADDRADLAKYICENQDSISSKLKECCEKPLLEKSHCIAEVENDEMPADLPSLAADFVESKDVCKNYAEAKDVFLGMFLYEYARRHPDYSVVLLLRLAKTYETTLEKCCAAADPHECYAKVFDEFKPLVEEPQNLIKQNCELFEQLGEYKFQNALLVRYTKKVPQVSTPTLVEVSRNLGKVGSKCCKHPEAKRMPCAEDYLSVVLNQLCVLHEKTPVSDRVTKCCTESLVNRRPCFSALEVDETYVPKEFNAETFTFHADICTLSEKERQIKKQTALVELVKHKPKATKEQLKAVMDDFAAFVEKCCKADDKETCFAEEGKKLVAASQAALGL
Method for human serum albumin: as §1

B1: AT167 [hGIP(3-30)NH2[H18K]-C16/18+y-glutamic acid+8-amino-3,6-dioxaoctanoic acid] (peptide)
peptide: EGTFISDYSIAMDKIK([γGlu-AEEA-Palmitoyl])QQDFVNWLLAQK-NH2
modifications: also: order of γGlu and AEEAc linker pieces on Lys not given here
As for B1, in the experiment with human GIP receptor [1], the “cAMP accumulation Fold change (from GIP(3-30)NH2)” value is 14.8 fold, the “cAMP accumulation IC50” value is 4.4 nM and the “cAMP accumulation logIC50” value was -8.36 log(M).

B2: AT166 [hGIP(3-30)NH2[H18K]-C16/18+β-alanine] (peptide)
peptide: EGTFISDYSIAMDKIK([βAla-Palmitoyl])QQDFVNWLLAQK-NH2
modifications: N-terminus assumed
SMILES: CCCCCCCCCCCCCCCC(=O)NCCC(=O)NCCCC[C@H](NC(=O)[C@@H](NC(=O)[C@H](CCCCN)NC(=O)[C@H](CC(=O)O)NC(=O)[C@H](CCSC)NC(=O)[C@H](C)NC(=O)[C@@H](NC(=O)[C@H](CO)NC(=O)[C@H](Cc1ccc(O)cc1)NC(=O)[C@H](CC(=O)O)NC(=O)[C@H](CO)NC(=O)[C@@H](NC(=O)[C@H](Cc1ccccc1)NC(=O)[C@@H](NC(=O)CNC(=O)[C@@H](N)CCC(=O)O)[C@@H](C)O)[C@@H](C)CC)[C@@H](C)CC)[C@@H](C)CC)C(=O)N[C@@H](CCC(N)=O)C(=O)N[C@@H](CCC(N)=O)C(=O)N[C@@H](CC(=O)O)C(=O)N[C@@H](Cc1ccccc1)C(=O)N[C@H](C(=O)N[C@@H](CC(N)=O)C(=O)N[C@@H](Cc1c[nH]c2ccccc12)C(=O)N[C@@H](CC(C)C)C(=O)N[C@@H](CC(C)C)C(=O)N[C@@H](C)C(=O)N[C@@H](CCC(N)=O)C(=O)N[C@@H](CCCCN)C(N)=O)C(C)C
As to B2, in the experiment with human GIP receptor [1], the “cAMP accumulation Fold change (from GIP(3-30)NH2)” value was determined as 2.9 fold, the “cAMP accumulation IC50” value turned out to be 22.9 nM and the “cAMP accumulation logIC50” value was -7.64 log(M).

B3: AT169 [hGIP(5-30)NH2[I7K]-C16diacid/7] (peptide)
peptide: TFK(C16 diacid)SDYSIAMDKIHQQDFVNWLLAQK-NH2
modifications: N-terminus assumed
SMILES: CC[C@H](C)[C@H](NC(=O)[C@H](CO)NC(=O)[C@H](Cc1ccc(O)cc1)NC(=O)[C@H](CC(=O)O)NC(=O)[C@H](CO)NC(=O)[C@H](CCCCNC(=O)CCCCCCCCCCCCCCC(=O)O)NC(=O)[C@H](Cc1ccccc1)NC(=O)[C@@H](N)[C@@H](C)O)C(=O)N[C@@H](C)C(=O)N[C@@H](CCSC)C(=O)N[C@@H](CC(=O)O)C(=O)N[C@@H](CCCCN)C(=O)N[C@H](C(=O)N[C@@H](Cc1c[nH]cn1)C(=O)N[C@@H](CCC(N)=O)C(=O)N[C@@H](CCC(N)=O)C(=O)N[C@@H](CC(=O)O)C(=O)N[C@@H](Cc1ccccc1)C(=O)N[C@H](C(=O)N[C@@H](CC(N)=O)C(=O)N[C@@H](Cc1c[nH]c2ccccc12)C(=O)N[C@@H](CC(C)C)C(=O)N[C@@H](CC(C)C)C(=O)N[C@@H](C)C(=O)N[C@@H](CCC(N)=O)C(=O)N[C@@H](CCCCN)C(N)=O)C(C)C)[C@@H](C)CC
Consider B3, for which the binding result with human serum albumin was “binds”.

B4: AT171 [hGIP(5-30)NH2[D9K]-C16diacid/9] (peptide)
peptide: TFISK(C16 diacid)YSIAMDKIHQQDFVNWLLAQK-NH2
modifications: N-terminus assumed
SMILES: CC[C@H](C)[C@H](NC(=O)[C@H](CO)NC(=O)[C@H](Cc1ccc(O)cc1)NC(=O)[C@H](CCCCNC(=O)CCCCCCCCCCCCCCC(=O)O)NC(=O)[C@H](CO)NC(=O)[C@@H](NC(=O)[C@H](Cc1ccccc1)NC(=O)[C@@H](N)[C@@H](C)O)[C@@H](C)CC)C(=O)N[C@@H](C)C(=O)N[C@@H](CCSC)C(=O)N[C@@H](CC(=O)O)C(=O)N[C@@H](CCCCN)C(=O)N[C@H](C(=O)N[C@@H](Cc1c[nH]cn1)C(=O)N[C@@H](CCC(N)=O)C(=O)N[C@@H](CCC(N)=O)C(=O)N[C@@H](CC(=O)O)C(=O)N[C@@H](Cc1ccccc1)C(=O)N[C@H](C(=O)N[C@@H](CC(N)=O)C(=O)N[C@@H](Cc1c[nH]c2ccccc12)C(=O)N[C@@H](CC(C)C)C(=O)N[C@@H](CC(C)C)C(=O)N[C@@H](C)C(=O)N[C@@H](CCC(N)=O)C(=O)N[C@@H](CCCCN)C(N)=O)C(C)C)[C@@H](C)CC
On to B4, for which the binding result with human serum albumin was “binds”.

B5: AT175 [hGIP(5-30)NH2[A13K]-C16diacid/13] (peptide)
peptide: TFISDYSIK(C16 diacid)MDKIHQQDFVNWLLAQK-NH2
modifications: N-terminus assumed
SMILES: CC[C@H](C)[C@H](NC(=O)[C@H](CCCCN)NC(=O)[C@H](CC(=O)O)NC(=O)[C@H](CCSC)NC(=O)[C@H](CCCCNC(=O)CCCCCCCCCCCCCCC(=O)O)NC(=O)[C@@H](NC(=O)[C@H](CO)NC(=O)[C@H](Cc1ccc(O)cc1)NC(=O)[C@H](CC(=O)O)NC(=O)[C@H](CO)NC(=O)[C@@H](NC(=O)[C@H](Cc1ccccc1)NC(=O)[C@@H](N)[C@@H](C)O)[C@@H](C)CC)[C@@H](C)CC)C(=O)N[C@@H](Cc1c[nH]cn1)C(=O)N[C@@H](CCC(N)=O)C(=O)N[C@@H](CCC(N)=O)C(=O)N[C@@H](CC(=O)O)C(=O)N[C@@H](Cc1ccccc1)C(=O)N[C@H](C(=O)N[C@@H](CC(N)=O)C(=O)N[C@@H](Cc1c[nH]c2ccccc12)C(=O)N[C@@H](CC(C)C)C(=O)N[C@@H](CC(C)C)C(=O)N[C@@H](C)C(=O)N[C@@H](CCC(N)=O)C(=O)N[C@@H](CCCCN)C(N)=O)C(C)C
For B5, the binding result in the experiment with human serum albumin is reported as “binds”.

B6: AT181 [hGIP(5-30)NH2[D21K]-C16diacid/21] (peptide)
peptide: TFISDYSIAMDKIHQQK(C16 diacid)FVNWLLAQK-NH2
modifications: N-terminus assumed
SMILES: CC[C@H](C)[C@H](NC(=O)[C@H](CO)NC(=O)[C@H](Cc1ccc(O)cc1)NC(=O)[C@H](CC(=O)O)NC(=O)[C@H](CO)NC(=O)[C@@H](NC(=O)[C@H](Cc1ccccc1)NC(=O)[C@@H](N)[C@@H](C)O)[C@@H](C)CC)C(=O)N[C@@H](C)C(=O)N[C@@H](CCSC)C(=O)N[C@@H](CC(=O)O)C(=O)N[C@@H](CCCCN)C(=O)N[C@H](C(=O)N[C@@H](Cc1c[nH]cn1)C(=O)N[C@@H](CCC(N)=O)C(=O)N[C@@H](CCC(N)=O)C(=O)N[C@@H](CCCCNC(=O)CCCCCCCCCCCCCCC(=O)O)C(=O)N[C@@H](Cc1ccccc1)C(=O)N[C@H](C(=O)N[C@@H](CC(N)=O)C(=O)N[C@@H](Cc1c[nH]c2ccccc12)C(=O)N[C@@H](CC(C)C)C(=O)N[C@@H](CC(C)C)C(=O)N[C@@H](C)C(=O)N[C@@H](CCC(N)=O)C(=O)N[C@@H](CCCCN)C(N)=O)C(C)C)[C@@H](C)CC
As to B6, the binding result with human serum albumin is “binds”.

B7: AT173 [hGIP(5-30)NH2[S11K]-C16diacid/11] (peptide)
peptide: TFISDYK(C16 diacid)IAMDKIHQQDFVNWLLAQK-NH2
modifications: N-terminus assumed
SMILES: CC[C@H](C)[C@H](NC(=O)[C@H](CCCCNC(=O)CCCCCCCCCCCCCCC(=O)O)NC(=O)[C@H](Cc1ccc(O)cc1)NC(=O)[C@H](CC(=O)O)NC(=O)[C@H](CO)NC(=O)[C@@H](NC(=O)[C@H](Cc1ccccc1)NC(=O)[C@@H](N)[C@@H](C)O)[C@@H](C)CC)C(=O)N[C@@H](C)C(=O)N[C@@H](CCSC)C(=O)N[C@@H](CC(=O)O)C(=O)N[C@@H](CCCCN)C(=O)N[C@H](C(=O)N[C@@H](Cc1c[nH]cn1)C(=O)N[C@@H](CCC(N)=O)C(=O)N[C@@H](CCC(N)=O)C(=O)N[C@@H](CC(=O)O)C(=O)N[C@@H](Cc1ccccc1)C(=O)N[C@H](C(=O)N[C@@H](CC(N)=O)C(=O)N[C@@H](Cc1c[nH]c2ccccc12)C(=O)N[C@@H](CC(C)C)C(=O)N[C@@H](CC(C)C)C(=O)N[C@@H](C)C(=O)N[C@@H](CCC(N)=O)C(=O)N[C@@H](CCCCN)C(N)=O)C(C)C)[C@@H](C)CC
Consider B7, for which, in the experiment with human serum albumin, the binding result is recorded as “binds”.

B8: AT117 [hGIP(3-30)NH2[H18K]-C16/18] (peptide)
peptide: EGTFISDYSIAMDKIK(Palmitoyl)QQDFVNWLLAQK-NH2
modifications: N-terminus assumed
SMILES: CCCCCCCCCCCCCCCC(=O)NCCCC[C@H](NC(=O)[C@@H](NC(=O)[C@H](CCCCN)NC(=O)[C@H](CC(=O)O)NC(=O)[C@H](CCSC)NC(=O)[C@H](C)NC(=O)[C@@H](NC(=O)[C@H](CO)NC(=O)[C@H](Cc1ccc(O)cc1)NC(=O)[C@H](CC(=O)O)NC(=O)[C@H](CO)NC(=O)[C@@H](NC(=O)[C@H](Cc1ccccc1)NC(=O)[C@@H](NC(=O)CNC(=O)[C@@H](N)CCC(=O)O)[C@@H](C)O)[C@@H](C)CC)[C@@H](C)CC)[C@@H](C)CC)C(=O)N[C@@H](CCC(N)=O)C(=O)N[C@@H](CCC(N)=O)C(=O)N[C@@H](CC(=O)O)C(=O)N[C@@H](Cc1ccccc1)C(=O)N[C@H](C(=O)N[C@@H](CC(N)=O)C(=O)N[C@@H](Cc1c[nH]c2ccccc12)C(=O)N[C@@H](CC(C)C)C(=O)N[C@@H](CC(C)C)C(=O)N[C@@H](C)C(=O)N[C@@H](CCC(N)=O)C(=O)N[C@@H](CCCCN)C(N)=O)C(C)C
For B8, the 50% inhibitory concentration (IC50) stood at 1730 nM in the experiment with human GIP receptor [2], 292 nM in the experiment with human GIP receptor [3] and 110 nM in the experiment with human GIP receptor [5]. For the same molecule, the “cAMP - antagonisme IC50” value with human GIP receptor [4] was determined as 19.4 nM.

The IC50 is the concentration that inhibits the measured activity by half. Low readings indicate higher potency, high ones lower potency.
